Read-outs that look alike come from different tables or passages of the source.
Tests used:
[1] = molecular target: T1, SARS-CoV-2 Omicron BA.1 spike protein (on pseudotyped lentivirus) (SARS-CoV-2), P0DTC2
[2] = molecular target: T1, SARS-CoV-2 Omicron BA.1 spike protein …; assay: cell-based or functional assay
[3] = molecular target: SARS-CoV-2 WA-1 S-2P spike protein (SARS-CoV-2), P0DTC2; conditions: remark: other sources report otherwise

Binder | neutralization IC50 [1] | neutralization IC80 [1] | neutralization IC50 [2] | % inhibition of ACE2 binding [3]
B2-269.1 (antibody, V domains shown) VH: EVQLVESGGGLVQPGGSLRLSCAASGITVSSNYMSWVRQPPGKGLDWVSLIFSGGSTYYADSVKGRFTISRDNSKNTLYLQMNSLRAEDTAVYYCARVGVAVAGTDYDIWGQGTMVTVSS VL: DIQMTQSPSSLSASVGDRVTITCQASQDINKYLNWYQQKPGKAPKLLIYDASNLETGVPSRFSGSGSGTDFTFTISSLQPEDIATYYCLHYENLPLSFGGGTKVEIK | 0.01 µg/mL | 0.02 µg/mL | < 0.1 µg/mL | 
A19-46.1 (antibody) chain 1: QVQLVESGGGVVQPGRSLRLSCAASGFTLSSYGMHWVRQAPGKGLEWVAVISYDGSNKYYVDSVKGRFTISRDNSKNTLYLQMNSLRAEDTAVYYCARGWAYWELLPDYYYGMDVWGQGTTVTVSS chain 2: QTVVTQEPSFSVSPGGTVTLTCGLSSGSVSTAYFPSWYQQTPGQAPRTLIYGTNTRSSGVPDRFSGSILGNKAALTITGAQADDESDYYCVLYMGRGIVVFGGGTKLTVL |  |  |  | 98%

From patent publication US20260209317A1
